Assays:
[1] = target: fused glucose-6-phosphate dehydrogenase::6-phosphogluconolactonase (G6PD::6PGL) protein from Giardia lamblia (Giardia lamblia)
[2] = target: fused glucose-6-phosphate dehydrogenase::6-phosphogluconolactonase (G6PD::6PGL) protein from Giardia lamblia (Giardia lamblia); test: SEC; Sephacryl 100 (16/60) gel filtration column, 50 mM Tris buffer pH 7.85, flow 0.5 mL/min, calibrated with Bio-Rad gel filtration standards; oligomeric state from the elution volume
[3] = target: fused glucose-6-phosphate dehydrogenase::6-phosphogluconolactonase (G6PD::6PGL) protein from Giardia lamblia (Giardia lamblia); test: SEC; Shodex Protein KW-802.5 column, 50 mM Tris buffer pH 8.75, protein incubated 2 h at 37 °C with either 0.45 M or no Gdn-HCl, flow 0.5 mL/min, calibrated with Bio-Rad standards

residual G6PD activity after incubation of the enzyme at 0 to 100 µg/mL for 2 h at 37 °C (stability to dilution) [1]: 100%
stoichiometry N [2]: 2
stoichiometry N [3]: 2
Substance: fused glucose-6-phosphate dehydrogenase::6-phosphogluconolactonase (G6PD::6PGL) protein from Giardia lamblia (enzyme)

Source: PMC6165198
